# Measurements taken from patent US11746133B2, “Cell penetrating peptides that inhibit IRF5 nuclear localization” (Rutgers, The State University of New Jersey, priority 2015, dated 2023).
# Residues, ends and D or L forms follow the SMILES beside them.
# Legend:
# IRF5 [1] = molecular target: T1, IRF5 (Homo sapiens, UniProt Q13568); test: R848-induced IRF5 nuclear translocation in PBMCs by imaging flow cytometry; assay type: cell-based; details: inhibitor 1 hour, then 500 ng/mL R848 2 hours, vs scrambled control
# T1 construct: endogenous in cells; host or cells: healthy-donor human PBMCs; CD14+ monocytes and CD19+ B cells
# T1 sequence (Q13568 1-498): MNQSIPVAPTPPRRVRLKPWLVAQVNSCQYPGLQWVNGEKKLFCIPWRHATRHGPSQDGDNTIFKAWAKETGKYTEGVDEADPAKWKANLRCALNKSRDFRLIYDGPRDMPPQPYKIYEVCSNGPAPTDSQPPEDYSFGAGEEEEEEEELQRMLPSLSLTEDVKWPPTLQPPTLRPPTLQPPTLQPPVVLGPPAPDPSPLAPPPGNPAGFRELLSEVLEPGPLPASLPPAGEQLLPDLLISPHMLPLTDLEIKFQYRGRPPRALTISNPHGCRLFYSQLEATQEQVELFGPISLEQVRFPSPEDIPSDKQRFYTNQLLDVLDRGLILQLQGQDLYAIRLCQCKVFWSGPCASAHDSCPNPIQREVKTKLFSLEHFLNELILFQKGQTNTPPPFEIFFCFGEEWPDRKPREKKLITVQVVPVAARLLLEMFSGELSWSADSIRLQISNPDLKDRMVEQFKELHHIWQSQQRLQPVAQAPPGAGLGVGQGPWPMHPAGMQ
# Method: FIGS. 2A-E. Peptides (non-FITC-conjugated) inhibit R848-induced IRF5 nuclear translocation. Healthy donor PBMCs were pre-incubated with peptide inhibitors for 1 hour and then stimulated for 2 hours with the Toll-like receptor agonist R848. IRF5 cellular localization was determined in CD14+ monocytes (FIG. 2A) and CD19+ B cells (FIG. 2B) by staining with intracellular IRF5 and DRAQ5. Similarity scores between IRF5 and DRAQ5 were determined on the Amnis Imagestream using IDEAS software. […] Lamin B1 serves as a nuclear protein loading control. Cells were pre-incubated with the indicated inhibitors for 1 hour and then stimulated with LPS for 2 hours. […] IRF5 band intensity was normalized by Lamin B1, and relative fold change of IRF5 in nuclear portion was calculated over PBS treated sample. […]
# Imaging Flow Cytometry. […] Nuclear translocation was quantified in the Amnis IDEAS software suite. […] Finally, IRF5 nuclear translocation was determined through use of the similarity score feature contrasting IRF5 staining with DRAQ5 staining. […]
# IRF5 peptide inhibitor blocks IRF5 nuclear translocation in both B cells and monocytes. […] As IRF5 has been implicated in the onset of autoimmune diseases in both monocytes and B cells, it was sought to be determined if IRF5 nuclear translocation could be inhibited in both cell populations following stimulation with the TLR7 agonist R848. […]
# IRF5 [2] = molecular target: T1, IRF5; test: Cell fractionation and Western blot of nuclear IRF5 in primary monocytes; assay type: cell-based; details: isolated primary monocytes, inhibitor then R848 stimulation
# Method: FIGS. 2A-E. Peptides (non-FITC-conjugated) inhibit R848-induced IRF5 nuclear translocation. Healthy donor PBMCs were pre-incubated with peptide inhibitors for 1 hour and then stimulated for 2 hours with the Toll-like receptor agonist R848. IRF5 cellular localization was determined in CD14+ monocytes (FIG. 2A) and CD19+ B cells (FIG. 2B) by staining with intracellular IRF5 and DRAQ5. Similarity scores between IRF5 and DRAQ5 were determined on the Amnis Imagestream using IDEAS software. […] Lamin B1 serves as a nuclear protein loading control. […] IRF5 band intensity was normalized by Lamin B1, and relative fold change of IRF5 in nuclear portion was calculated over PBS treated sample. In FIGS. 2A-B and E, the bar on the left is mock (NT) and the bar on the right is R848.
# Cell Fractionation. Cells were fractionated according to manufacturer's protocol (Cell Signaling, Cell fractionation kit, #9038). Following fractionation, lysates were sonicated and boiled. Nuclear fraction was analyzed by Western blot as follows: 30 μL of lysate was loaded onto a 3-8% NuPAGE® Novex® Tris-Acetate gel (Life Technologies, #EA0378BOX), and transferred onto a 0.45 μm nitrocellulose membrane (Bio-Rad Laboratories). […] Membrane was incubated with Clarity™ ECL Western Blotting Substrate (Bio-Rad Laboratories) and chemiluminescence detected with a ChemiDoc™ MP Imaging System (Bio-Rad Laboratories). […]
# Ramos B cells [3] = test: Propidium iodide staining to quantify cell death after inhibitor titration; assay type: cell-based, human; details: 25 uM FITC-conjugated inhibitor, 2 hours
# Method: Peptide inhibitor titration and uptake. Ramos B cells or THP1 cells were treated with 0.025, 0.25, 2.5, and 25 uM of FITC conjugated peptide inhibitors for 2 hours. Cells were washed, stained with propidium iodide, and immediately analyzed by flow cytometry for uptake of FITC peptide. For uptake experiments in PBMCs, cells were incubated with 10 uM of either mock, scrambled, N-term′ NLS, or C-term′ NLS FITC conjugated inhibitor for 2 hours. Cells were then washed and blocked as previously outlined, and subsequently stained with CD19-BV510 and CD14-PE (Biolegend Catalog #301806). Cells were fixed, stained with DRAQ5 nuclear dye and analyzed by imagestream for uptake of FITC peptide.
# IRF5 Peptide Inhibitors readily enter the cell and have low associated toxicity. IRF5 peptide inhibitors were conjugated to FITC moieties to measure cellular uptake over a dose-dependent response. Ramos B cells were treated with increasing concentrations of FITC-conjugated inhibitor for 2 hours. Cells were washed and subsequently treated with propidium iodide to quantify cell death. […] Cell cycle was measured through propidium iodide incorporation, and quantified through flow cytometry. […] To determine if it would be possible to increase uptake of the inhibitor in B cells, uptake following incubation with 10 uM for 1 hour was measured.
# Ramos B cells [4] = test: Tryphan blue staining for cell viability after 24 hours with inhibitor; assay type: cell-based, human; details: 25 uM
# Method: IRF5 Peptide Inhibitors readily enter the cell and have low associated toxicity. IRF5 peptide inhibitors were conjugated to FITC moieties to measure cellular uptake over a dose-dependent response. Ramos B cells were treated with increasing concentrations of FITC-conjugated inhibitor for 2 hours. Cells were washed and subsequently treated with propidium iodide to quantify cell death. While at the lower doses of 0.025 and 0.25 uM minimal uptake was seen, at 2.5 uM however, greater than 95% of cells were positive for the FITC-conjugated inhibitor (FIG. 1A). In addition, less than 3% of cells stained positive for propidium iodide, indicating low toxicity for the inhibitor at this dose. […] However, no significant increase in uptake was seen between 2.5 uM and 25 uM concentrations of inhibitor. To ensure no impact on cell viability from treatment with the inhibitors, Ramos B cells were treated with varying concentrations of inhibitor as used previously for the titration experiments for 24 hours, and tryphan blue staining was subsequently performed. […] Cell cycle was measured through propidium iodide incorporation, and quantified through flow cytometry. […] To determine if it would be possible to increase uptake of the inhibitor in B cells, uptake following incubation with 10 uM for 1 hour was measured.
IRF5 nuclear translocation in B cells (IRF5 [1]),"levels of IRF5 in the nucleus (cell fractionation, Western blot) (IRF5 [2])",Molecule,IRF5 nuclear translocation in monocytes (IRF5 [1]),associated toxicity (propidium iodide) (Ramos B cells [3]),viability by tryphan blue staining (Ramos B cells [4])
no inhibition,Reduced levels of IRF5,DRQIKIWFQNRRMKWKKPREKKLI [IRF5 3′NLS],only slightly reduced nuclear translocation,–,–
–,–,CC[C@H](C)[C@H](NC(=O)[C@H](CCCCN)NC(=O)[C@@H](NC(=O)[C@H](CCC(N)=O)NC(=O)[C@H](CCCNC(=N)N)NC(=O)[C@@H](N)CC(=O)O)[C@@H](C)CC)C(=O)N[C@@H](Cc1c[nH]c2ccccc12)C(=O)N[C@@H](Cc1ccccc1)C(=O)N[C@@H](CCC(N)=O)C(=O)N[C@@H](CC(N)=O)C(=O)N[C@@H](CCCNC(=N)N)C(=O)N[C@@H](CCCNC(=N)N)C(=O)N[C@@H](CCSC)C(=O)N[C@@H](CCCCN)C(=O)N[C@@H](Cc1c[nH]c2ccccc12)C(=O)N[C@@H](CCCCN)C(=O)N[C@@H](CCCCN)C(=O)N1CCC[C@H]1C(=O)N[C@@H](CCCNC(=N)N)C(=O)N[C@@H](CCCNC(=N)N)C(=O)N[C@H](C(=O)N[C@@H](CCCNC(=N)N)C(=O)N[C@@H](CC(C)C)C(=O)N[C@@H](CCCCN)C(=O)O)C(C)C [IRF5 5′NLS] (H-DRQIKIWFQNRRMKWKKPRRVRLK-OH),–,minimal associated toxicity,–
–,–,CC[C@H](C)[C@H](NC(=O)[C@H](CCCCN)NC(=O)[C@@H](NC(=O)[C@H](CCC(N)=O)NC(=O)[C@H](CCCNC(=N)N)NC(=O)[C@@H](N)CC(=O)O)[C@@H](C)CC)C(=O)N[C@@H](Cc1c[nH]c2ccccc12)C(=O)N[C@@H](Cc1ccccc1)C(=O)N[C@@H](CCC(N)=O)C(=O)N[C@@H](CC(N)=O)C(=O)N[C@@H](CCCNC(=N)N)C(=O)N[C@@H](CCCNC(=N)N)C(=O)N[C@@H](CCSC)C(=O)N[C@@H](CCCCN)C(=O)N[C@@H](Cc1c[nH]c2ccccc12)C(=O)N[C@@H](CCCCN)C(=O)N[C@@H](CCCCN)C(=O)N1CCC[C@H]1C(=O)N[C@@H](CCCCN)C(=O)N[C@@H](CCCNC(=N)N)C(=O)N[C@@H](CCCNC(=N)N)C(=O)N[C@@H](CCCNC(=N)N)C(=O)N[C@@H](CC(C)C)C(=O)N[C@H](C(=O)O)C(C)C [Scrambled 5′NLS] (H-DRQIKIWFQNRRMKWKKPKRRRLV-OH; N-terminus and C-terminus assumed),–,minimal associated toxicity,decrease in viability
